The nanobody polyreactivity screen of Harvey et al. (2022)

Assay: yeast display, Sf9 membrane polyspecificity reagent, FACS + sequencing; frameworks hold sequencing errors
Method in brief: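 Sorting gates, low and high (top ~1%), were placed on anti-HA fluorescence to track expression and on streptavidin fluorescence to track reagent binding. A clone's polyreactivity label is taken from the gate it came out of. The reagent was 10% biotinylated, detergent-solubilized Sf9 membrane, applied for 1 hour at 4 °C to galactose-induced yeast display cells.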

Sequence | polyreactivity (PSR sort gate)
QVQLVESGGGLVQAGGSLRLSCAASGGTIAGYAMGWYRQAPGKARELVASISDGGSTNYADSVKGRFTISRDNAKNTVYLQMNSLKPEDTAVYYCAVQGSRTENYDWYYYWGQGTQVTVSS | low polyreactivity
QVQLVESGGGLVQAGGSLRLSCAASGGTIGRYTMGWYRQAPGKERELVAAITGRGGSTYYADSVKGRFTISRDNAKNTVYLQMNSLKPEDTAVYYCAAVSNVARMYYWGQGTQVTVSS | high polyreactivity
QVQLVESGGGLVQAGGSLRLSCAASGGTIIGYAMGWYRQAPGKERELVAAITSGGSTYYADSVKGRFTISRDNAKNTVYLQMNSLKPEDTAVYYCAKSYGGLGSIYRFYYWGQGTQVTVSS | low polyreactivity
QVQLVESGGGLVQAGGSLRLSCAASGGTLAYYAMGWYRQAPGKERELVAAITRSGGSTYYSDSVKGRFTISRDNAKNTVYLQMNSLNPEVTAVYYCAALLAYWKNRWHIEYDYWGQGTQVTVSS | low polyreactivity
QVQLVESGGGLVQAGGSLRLSCAASGGTLGLNAMGWYRQAPGKEREFVAAINRSGGSTRYADSVKGRFTISRDNAKNTVYLQMNSLKPEDTAVYSCAAVGYWGPSGRHKSSKYEYWGQGTQVTVSS | high polyreactivity
QVQLVESGGGLVQAGGSLRLSCAASGGTSFYAMGWYRQAPGKDRELVAAITRSGGSTYYADSVKGRFTFSRDNAKNTVYLQMNSLKPEDTAVYYCAALSNHGYYIRMDYWGQGTQVTVSS | high polyreactivity
QVQLVESGGGLVQAGGSLRLSCAASGGTSIPYAMGWYRQAPGKERELVAAITRSGGRTYYADSVKGRFTISRDNAKNTVYLQMNSLKPEDTAVYYCAAAYYRWGYTVTVIKQFGYWGQGTQVTVSS | high polyreactivity
QVQLVESGGGLVQAGGSLRLSCAASGHIFFVNAMGWYRQAPGKERELVAAINSVGSTYYADSVKGRFTISRDNAKNTVYLQMNSLKPEDTAVYYCAADSVYSQRHSWAYEDDYWGQGTQVTVSS | low polyreactivity
QVQLVESGGGLVQAGGSLRLSCAASGHIFPTNPMGWYRQAPGKERQLVAVISESVGSTYYADSVKGRFTISRDNAKNTVYLQMNSLKPEDTAVYFCAKQSRYPSLDADYDYWGQGTQVTVSS | low polyreactivity
QVQLVESGGGLVQAGGSLRLSCAASGHTFLEYAMGWYRQAPGKESELVASISFSAGSTYYADSVKGRFTISRDNAKNTVYLQLNSLKPEDTALYYCNAEYLYDYYYYWPYWFEFDYWGQGTQVTVSS | high polyreactivity
QVQLVESGGGLVQAGGSLRLSCAASGHTLAVKAKGWYRQAPGKERELVAAITRSGVTTSYADSVKGRFTISRDNAQNTFYLQLHSVKPEDTAVSYCAAQLDASYLTGGWRRHYNYWGQGTQVTVSS | low polyreactivity
QVQLVESGGGLVQAGGSLRLSCAASGIFDPNAMGWNRQAPRKERELVAAITSGGSTNYADSVKGRFTISRDNAKNTVYLQMNSLKPEDTAVYYCNRVEGRTRWADEMNYWGQGTQLTVSS | low polyreactivity
QVQLVESGGGLVQAGGSLRLSCAASGIFFNYMGWYRQAPGKEREFVAAIDYRGGNTFYADSVKGRFTISRDNAKNTVYLQMNSLKPEDTAVYYCARAFGQRRYDYWGQGTQVTVSS | high polyreactivity
QVQLVESGGGLVQAGGSLRLSCAASGIFFPNAMGCYRQAPGKERELVAAISWTGGSTFYADSVKGRFTISRDNAKNTVYLQMNSLKPEDTAVYYCAAEEYYAGWTYDYWGQGTQVTVSS | high polyreactivity
QVQLVESGGGLVQAGGSLRLSCAASGIFGVNTMGWYRQAPGKERELVASITSGGSTNYADSVKGRFTISRDNAKNTVYLQMNSLKPEDTAVYYCAAGLYLQGPFDYWGQGTQVTVSS | low polyreactivity
QVQLVESGGGLVQAGGSLRLSCAASGIFGYNAMGWYIQAPGKERELVAAITSSGTSTYYADSVKGRFTISRDNAKNTVYLQMNSLKPEDTAVYYCAALHSGTWTGYGYWGQGTQVTVSS | low polyreactivity
QVQLVESGGGLVQAGGSLRLSCAASGIFSRYAMGWYRQAPGKERELVAAISSGGSTYYADSVKGRFTISRDNAKNTVYLQMNSLKAEDTAVYYCAVKQRDKFAGGRNDYWGQGTQVTVSS | high polyreactivity
QVQLVESGGGLVQAGGSLRLSCAASGIFSYYAMGWYRPAPGKERELVAAISSSGGSTYYADSVKGRFTISRDNAMNTVYLQMNSLKPEDTAVYYCNVRNYYNDYYYWGQGTQVTVSS | high polyreactivity
QVQLVESGGGLVQAGGSLRLSCAASGIFTRYAMGWYRQAPGKERELVAAISRGGGSTYYADSVKGRFTISRDNAKNTVYLQMNSLKPEDTAVYYCNTYKRPRSPGPKFYYWGQGTQVTVSS | high polyreactivity
QVQLVESGGGLVQAGGSLRLSCAASGIFVDNAMGWYRQAPGKERELVAAITSSTDSTYYADSVKGRFTISRDNAKNTVYLQMNSLKPEDTAVYYCAVARPGGFYFLVHYGYGYWGQGPQVTVSS | low polyreactivity
QVQLVESGGGLVQAGGSLRLSCAASGIIFAGNAMGWYRQAPGKERELVAAISSNGGSTYYADSVKGRFTISRDNAKNYVYLQMNSLKPEDTAVYYCAADRVYWGRVQGYYWGQGTQVTVSS | low polyreactivity

Sequence | polyreactivity (PSR sort gate)
QVQLVESGGGLVQAGGSLRLSCAASGIIFAGYAMGWYRQAPGKVRELVAAISGSGGRTYYADSVKGRLTISRDNAKNTVYLQMNSLKPEDTAVSFCAAEGRSEWGGDYYYGGQGTQVTVSS | low polyreactivity
QVQLVESGGGLVQAGGSLRLSCAASGIIFANYAMGWYRQAPGKERELVAAITSSGSTYYADSVKGRFTISRDNAKNTVYLQMNSLKPEDTAVYYCAARRRGRFYYWGQGTQVTVSS | high polyreactivity
QVQLVESGGGLVQAGGSLRLSCAASGIIFASNAMGWYRQAPGKQRELVATINWTDSSTYYADSVKGRFTISRDNAKNTVYLQMNSLKPEDTAVYYCAVVDVEEHVGHWGQGTQVTVSS | low polyreactivity
QVQLVESGGGLVQAGGSLRLSCAASGIIFAYYAMGGYRHAPGKERELVAAISRSGGITYYADSVKGRFSISRDNAKNTVYLQMNSLKPEDTAVYDCARFSSRPYDYWGQGTQVTVSS | high polyreactivity
QVQLVESGGGLVQAGGSLRLSCAASGIIFAYYAMGWYRQAPGKERELVAAISRSGGITYYADSVKGRFTISRDNAKNTVYLQMNSLKPEDTAAYYCARYSCRPYDYWGQGTQVTVSS | high polyreactivity
QVQLVESGGGLVQAGGSLRLSCAASGIIFAYYAMGWYRQAPGKVRELVASITNTGSTYYADSVKGRFTISRDNAKNTVYLQMNSLKPEDTAVYYCNAVLSSNTKWRYPGDYWGQGTQVTVSS | low polyreactivity
QVQLVESGGGLVQAGGSLRLSCAASGIIFAYYAMGWYRQGPGKERELVASITNTGSTYYADSVKGRFTISRDNSKNTVYLQMNSLKPEDTAVYYCNAVLSSNTKWRYPGDYWGQGTQVTVSS | low polyreactivity
QVQLVESGGGLVQAGGSLRLSCAASGIIFDFYTMGWYRQAPGKERELVAAINSSGGSTYYADSVKGRFTISRDNAMNTVYLHMNSLKPADTAVYYCNAEYLFFWGQYDYWGQGTQVTVSS | high polyreactivity
QVQLVESGGGLVQAGGSLRLSCAASGIIFDINAMGWYRQAPGKERELVAAITTSVDSTYYADSVKGRFTISRDNAKNTVYLQMNRLKPEDTAVYYCAVAFVQFTQYDYWGQGTQVTVSS | low polyreactivity
QVQLVESGGGLVQAGGSLRLSCAASGIIFDINAMGWYRQAPGKERELVAAITTSVDSTYYADSVKGRFTISRDNAKNTVYLQMNSLKPEDTAVYYCAVAFVQFTQYDYWGQGTQVTVSS | low polyreactivity
QVQLVESGGGLVQAGGSLRLSCAASGIIFDLYAMGWYRQAPGKERELVAAITYGGGSTYYADSVKGRFTISRDNAKHTVYLQMNSLQPEDTAVYYCAAVPRSGMYYWGQGTQVTVSS | high polyreactivity
QVQLVESGGGLVQAGGSLRLSCAASGIIFDTNAMGGYRQAPGKERELVATITQRGGTTYYADSVKGRFTISRDNEKYTVYLQMNSLKPEDTAVYYCNAGPVRLPYDSWGQGTQVTVSS | low polyreactivity
QVQLVESGGGLVQAGGSLRLSCAASGIIFDWYAMGGYRQAPGKERELVAAITSGGGSTYYADSVKGRFTISRDNAKNSVYLQMNSLKPEDSAVYYCAADYQTIGWGYDYWGQGTQVTVSS | low polyreactivity
QVQLVESGGGLVQAGGSLRLSCAASGIIFDYNAMGWYRQAPGKERELVAAISSSGGSTYYADSVKGRFTLSRDNAKNTVYLLMTSLKPEDTAVYYCAAAPRFRGYDYWGQGTQVTVSS | high polyreactivity
QVQLVESGGGLVQAGGSLRLSCAASGIIFDYYAMGLYRHAPGKEMELVASISWSGGGTYYADSVKGRFTISRDNAKNTVYLQMNSLKPEDTAVYYCNAGDHFVHWPHVKHKKFDYWGQGTQVTVSS | low polyreactivity
QVQLVESGGGLVQAGGSLRLSCAASGIIFDYYAMGWYRQAPGKERELVAAITTAGSTYYADSVKGRFTISRDNAKNTVYLQLNSLNPEDTAVYYCDAYLYSVRLGSYGYWGQGTQVTVSS | high polyreactivity
QVQLVESGGGLVQAGGSLRLSCAASGIIFDYYPMGWYRQAPGKERELVAGITRSGGRTYYADSVKGRFTISRDNAKNTVYLQMNSLKPEDTAVYYCAAQRGRRRWGGYWGQGTQVTVSS | high polyreactivity
QVQLVESGGGLVQAGGSLRLSCAASGIIFEGYAMGWYRQATGKERELVAAITGTADGTYYADSVKGRFTISRDNAKNTVYLQMNSLKPEDTAVYYCAKGSVVYLLRGVKGHSMDYWGQGTQVTVSS | low polyreactivity
QVQLVESGGGLVQAGGSLRLSCAASGIIFELYAMGWYRQAPGKERELVAAISNGDSTNYADSVKGRFTISRDNAKNTVYLQMNSLKPEDTAVYYCAARYSTYVRYDYWGQGTQVTVSS | low polyreactivity
QVQLVESGGGLVQAGGSLRLSCAASGIIFEPNAMGWYRQAPGKERELVAAIDSGGITYYADSVKGRFTISRDNAKNTVYLEMNSLKPEDTAVYYCAKRAYTRQYWYGYGYWGQGTQVTVSS | high polyreactivity
